Assay results from patent EP0251446B1, “Non-human Carbonyl hydrolase mutants, DNA sequences and vectors encoding same and hosts transformed with said vectors” (GENENCOR INTERNATIONAL, INC., priority 1986, dated 1988).

Assays:
Experiment in all cases: Kinetics of hydrolysis of succinyl-Ala-Ala-Pro-X-p-nitroanilide substrates (progress curve analysis)
Format in all cases: biochemical, B. amyloliquefaciens
[1] = substrate: C[C@H](NC(=O)CCC(=O)O)C(=O)N[C@@H](C)C(=O)N1CCC[C@H]1C(=O)N[C@@H](Cc1c[nH]cn1)C(=O)Nc1ccc([N+](=O)[O-])cc1; details: other: Table VIII; substrate succinyl-L-AlaL-AlaL-ProL-[X]-p-nitroanilide, X = label (P1 amino acid)
Text: (§1) A change in substrate specificity is defined as a difference between the kcat/Km ratio of the precursor carbonyl hydrolase and that of the hydrolase mutant. The kcat/Km ratio is a measure of catalytic efficienty. Carbonyl hydrolase mutants with increased or diminished kcat/Km ratios are described in the examples. Generally, the objective will be to secure a mutant having a greater (numerically large) kcat/Km ratio for a given substrate, thereby enabling the use of the enzyme to more efficiently act on a target substrate. A substantial change in kcat/Km ratio is preferably at least 2-fold increase or decrease. However, smaller increases or decreases in the ratio (e.g., at least 1.5-fold) are also considered substantial. An increase in kcat/Km ratio for one substrate may be accompanied by a reduction in kcat/Km ratio for another substrate. […] Km and kcat are measured in accord with known procedures, as described in EPO Publication No. 0130756 or as described herein.
(§2) Wild-type subtilisin was purified from B. subtilis culture supernatants expressing the B. amyloliquefaciens subtilisin gene (Wells, J.A., et al. (1983) Nucleic Acids Res. 11, 7911-7925) as previously described (Estell, D.A., et al. (1985) J. Biol. Chem. 260, 6518-6521). Details of the synthesis of tetrapeptide substrates having the form succinyl-L-AlaL-AlaL-ProL-[X]-p-nitroanilide (where X is the P1 amino acid) are described by DelMar, E.G., et al. (1979) Anal. Biochem. 99, 316-320. Kinetic parameters, Km(M) and kcat-(s-^1) were measured using a modified progress curve analysis (Estell, D.A., et al. (1985) J. Biol. Chem. 260, 6518-6521). Briefly, plots of rate versus product concentration were fit to the differential form of the rate equation using a non-linear regression algorithm. Errors in kcat and Km for all values reported are less than five percent. The various substrates in Table VIII are ranged in order of decreasing hydrophobicity. Nozaki, Y. (1971), J. Biol. Chem. 246, 2211-2217; Tanford C. (1978) Science 200, 1012).

[2] = substrate: C[C@H](NC(=O)CCC(=O)O)C(=O)N[C@@H](C)C(=O)N1CCC[C@H]1C(=O)N[C@@H](CCC(N)=O)C(=O)Nc1ccc([N+](=O)[O-])cc1; details: other: Table XIV, 156 Glu / 166 Gly(wt); value in parentheses; synthetic substrate with label as P-1 amino acid
Text: as §1, §2

[3] = substrate: C[C@H](NC(=O)[C@H](Cc1ccccc1)NC(=O)CCC(=O)O)C(=O)N1CCC[C@H]1C(=O)N[C@@H](Cc1ccccc1)C(=O)Nc1ccc([N+](=O)[O-])cc1; details: other: Table XI, WT
Text: as §1, §2

[4] = substrate: C[C@H](NC(=O)CCC(=O)O)C(=O)N[C@@H](C)C(=O)N1CCC[C@H]1C(=O)N[C@@H](CCC(=O)O)C(=O)Nc1ccc([N+](=O)[O-])cc1
Text: as §1, §2

[5] = substrate: C[C@H](NC(=O)CCC(=O)O)C(=O)N[C@@H](C)C(=O)N1CCC[C@H]1C(=O)N[C@@H](CCCCN)C(=O)Nc1ccc([N+](=O)[O-])cc1; details: other: Table XIV, 156 Glu / 166 Gly(wt); value in parentheses; synthetic substrate with label as P-1 amino acid
Text: as §1, §2

[6] = substrate: C[C@H](NC(=O)CCC(=O)O)C(=O)N[C@@H](C)C(=O)N1CCC[C@H]1C(=O)N[C@@H](CO)C(=O)Nc1ccc([N+](=O)[O-])cc1; details: other: Table VIII; substrate succinyl-L-AlaL-AlaL-ProL-[X]-p-nitroanilide, X = label (P1 amino acid)
Text: as §1, §2

[7] = substrate: C[C@H](NC(=O)CCC(=O)O)C(=O)N[C@@H](C)C(=O)N1CCC[C@H]1C(=O)N[C@@H](Cc1ccccc1)C(=O)Nc1ccc([N+](=O)[O-])cc1; details: other: Table V; substrate not given; Km in M
Text: as §1, §2

[8] = substrate: CSCC[C@H](NC(=O)[C@@H]1CCCN1C(=O)[C@H](C)NC(=O)[C@H](C)NC(=O)CCC(=O)O)C(=O)Nc1ccc([N+](=O)[O-])cc1; details: other: Table XIV, 156 Glu / 166 Gly(wt); value in parentheses; synthetic substrate with label as P-1 amino acid
Text: as §1, §2

[9] = substrate: CC(C)C[C@H](NC(=O)[C@@H]1CCCN1C(=O)[C@H](C)NC(=O)[C@H](C)NC(=O)CCC(=O)O)C(=O)Nc1ccc([N+](=O)[O-])cc1; details: other: Table VIII; substrate succinyl-L-AlaL-AlaL-ProL-[X]-p-nitroanilide, X = label (P1 amino acid)
Text: as §1, §2

[10] = substrate: C[C@H](NC(=O)[C@@H]1CCCN1C(=O)[C@H](C)NC(=O)[C@H](Cc1ccccc1)NC(=O)CCC(=O)O)C(=O)Nc1ccc([N+](=O)[O-])cc1; details: other: Table XI, WT
Text: as §1, §2

[11] = substrate: C[C@H](NC(=O)CCC(=O)O)C(=O)N[C@@H](C)C(=O)N1CCC[C@H]1C(=O)N[C@@H](C)C(=O)Nc1ccc([N+](=O)[O-])cc1
Text: as §1, §2

[12] = substrate: C[C@H](NC(=O)CCC(=O)O)C(=O)N[C@@H](C)C(=O)N1CCC[C@H]1C(=O)NCC(=O)Nc1ccc([N+](=O)[O-])cc1; details: other: Table VIII; substrate succinyl-L-AlaL-AlaL-ProL-[X]-p-nitroanilide, X = label (P1 amino acid)
Text: as §1, §2

[13] = substrate: C[C@H](NC(=O)CCC(=O)O)C(=O)N[C@@H](C)C(=O)N1CCC[C@H]1C(=O)N[C@@H](Cc1ccc(O)cc1)C(=O)Nc1ccc([N+](=O)[O-])cc1; details: other: Table VIII; substrate succinyl-L-AlaL-AlaL-ProL-[X]-p-nitroanilide, X = label (P1 amino acid)
Text: as §1, §2

[14] = other: Table XIII, Glu156/Gly166 (WT), synthetic substrate with label as P-1 residue
[15] = other: Table VIII, substrate succinyl-L-AlaL-AlaL-ProL-[X]-p-nitroanilide, X = label (P1 amino acid)

B1: B. amyloliquefaciens subtilisin, wild type (WT, Gly166) (Bacillus amyloliquefaciens) (protein)
chain: AQSVPYGVSQIKAPALHSQGYTGSNVKVAVIDSGIDSSHPDLKVAGGASMVPSETNPFQDNNSHGTHVAGTVAALNNSIGVLGVAPSASLYAVKVLGADGSGQYSWIINGIEWAIANNMDVINMSLGGPSGSAALKAAVDKAVASGVVVVAAAGNEGTSGSSSTVGYPGKYPSVIAVGAVDSSNQRASFSSVGPELDVMAPGVSIQSTLPGNKYGAYNGTSMASPHVAGAAALILSKHPNWTNTQVRSSLENTTTKLGDSFYYGKGLINVQAAAQ
notes: at various amino acid residues within the mature form of the subtilisin molecule; made in house; host or cells: Bacillus subtilis (secreted, culture supernatant)
kcat [1]: 7.9 S^-1
kcat/Km [1]: 13,000 s-^1M-1
Km [2]: 447 µM
kcat [2]: 3.2 S^-1
kcat/Km [2]: 7,100 s-^1M-1
Km [3]: 180 µM
kcat [3]: 26.0 s-^1
kcat/Km [3]: 150000 M⁻¹ s⁻¹
Km [4, 14]: 34000 µM
kcat [4, 14]: 0.54 s-^1
kcat/Km [4, 14]: 16 M⁻¹ s⁻¹
Km ([4]; other: Table XIV, 156 Glu / 166 Gly(wt), value in parentheses, synthetic substrate with label as P-1 amino acid): 33900 µM
Km [5]: 741 µM
kcat [6]: 2.8 S^-1
kcat/Km [6]: 4,200 s-^1M-1
Km [7]: 140 µM
kcat [7]: 50.0 s-^1
kcat/Km [7]: 360000 M⁻¹ s⁻¹
Km [8]: 107 µM
kcat [8]: 13 S^-1
kcat/Km [8]: 120,000 s-^1M-1
kcat [9]: 24 S^-1
kcat/Km [9]: 75,000 s-^1M-1
Km [10]: 73 µM
kcat [10]: 0.32 s-^1
kcat/Km [10]: 4400 M⁻¹ s⁻¹
kcat [11, 15]: 1.9 S^-1
kcat/Km [11, 15]: 11,000 s-^1M-1
Km ([11]; other: Table XI, WT): 230 µM
kcat ([11]; other: Table XI, WT): 3.2 s-^1
kcat/Km ([11]; other: Table XI, WT): 14000 M⁻¹ s⁻¹
kcat [12]: 0.003 S^-1
kcat/Km [12]: 21 s-^1M-1
kcat [13]: 28 S^-1
kcat/Km [13]: 1,100,000 s-^1M-1
